Reference: publication PMC3935945, “Insight into Highly Conserved H1 Subtype-Specific Epitopes in Influenza Virus Hemagglutinin” (PLoS ONE, 2014)
Where a chain is given by its changes, count along the chain named.

What was measured:
Experiment in all cases: ELISA
[1] = molecular target: T1, HA from A/Brisbane/59/2007(H1N1) (Influenza A virus A/Brisbane/59/2007 …, UniProt D5F1Q8, strain)
T1 construct: also called BR59

[2] = molecular target: T2, HA from A/California/04/2009(H1N1) (Influenza A virus A/California/04/2009 …, UniProt C3W5S1, strain)
T2 construct: also called CA04

[3] = molecular target: T3, HA from A/California/07/2009(H1N1) (Influenza A virus A/California/07/2009 …, UniProt C3W5X2, strain)
T3 construct: also called CA07

[4] = molecular target: T4, recombinant hemagglutinin (HA) of 2009 pandemic virus A/Korea/01/2009 (KR01) (Influenza A virus A/Korea/01/2009 (H1N1), strain); conditions: both partners purified
T4 construct: also called KR01 HA; H1N1 HA

[5] = molecular target: T5, hemagglutinin (HA) of H1N1 A/Thailand/CU44/2006 (CU44) (Influenza A virus A/Thailand/CU44/2006 …, UniProt A7LI25, strain); conditions: both partners purified
T5 construct: also called CU44 HA

Measured: binding result

B1: H1-specific monoclonal antibody GC0587 (antibody, V domains shown)
VH: VKLQQSGGGVVQPGGSLRLSCAASGFTFSDYDMSWIRQAPGKGLEWVSGILGGSERSYYRDSVKGRFTISRDNSRKTLYLQMNSLRAEDTAVYYCARHGSPGYTLYAWDYWGQGTMVTVSS
VL: DIQMTQSPASLAVSPGQRATITCRASESVSNYGINFINWFQQKPGQPPKLLIYTASNKGTGVPARFSGSGSGTDFTLTINPVEAEDTANYFCQQTKEVPYTFGGGTKLEIK
notes: copies: 2 + 2
binds: [1] | [2] | [3] | [4] | [5]

B2: H1-specific monoclonal antibody GC0757 (antibody, V domains shown)
VH: VKLQESGAVVQPGGSLRLSCAASGFTGSDYDMSWIRQAPGKGLEWVSGILGGSERSYYRDSVKGRSTISRDNSRKTLYLEMNSLRAEDTAVYYCARHSWGAYVQYGMDGWGQGTTVTVSS
VL: B1 VL with T101G, F102T, G103F
notes: copies: 2 + 2
binds: [1] | [2] | [3] | [4] | [5]
